# Experimental data reported in paper PMC8283798.
# pEC50: −log10 of the molar value.
# Target: FcγRIIIa-F158 (low-affinity FcγIIIa receptor allele) (human) (UniProt P08637)
# Experiment: ELISA
row,Substance,pEC50
1,"G2F (1), core-fucosylated Herceptin glycoform carrying the biantennary complex-type N-glycan (antibody; other documents disagree on this pair)",5.80
2,"G2(Az)F (2), core 6-azido-fucosylated Herceptin carrying a complex-type N-glycan (antibody; other documents disagree on this pair)",7.89
3,"G2Ara (6), core D-arabinosylated Herceptin (antibody; other documents disagree on this pair)",5.84
4,"G2(OH- triazol)F (4), core 6-triazole-fucosylated Herceptin (antibody; other documents disagree on this pair)",7.09

# Further lines, results first:
row,pEC50,Substance
1,7.94,"G2 (11), nonfucosylated Herceptin glycoform carrying the biantennary complex-type N-glycan (antibody; other documents disagree on this pair)"
2,7.05,"G2(NH2)F (3), core 6-amino-fucosylated Herceptin (antibody; other documents disagree on this pair)"
3,7.07,"G2Gal (5), core L-galactosylated Herceptin (antibody; other documents disagree on this pair)"

# Target: FcγRIIIa-V158 (high-affinity FcγIIIa receptor allele) (human) (UniProt P08637)
# Experiment: ELISA
row,Substance,pEC50
1,"G2Ara (6), core D-arabinosylated Herceptin (antibody)",7.40
2,"G2(OH- triazol)F (4), core 6-triazole-fucosylated Herceptin (antibody)",7.74
3,"G2F (1), core-fucosylated Herceptin glycoform carrying the biantennary complex-type N-glycan (antibody)",7.37
4,"G2 (11), nonfucosylated Herceptin glycoform carrying the biantennary complex-type N-glycan (antibody)",8.92

# Results, then the substance that gave them:
row,pEC50,Substance
1,8.54,"G2(Az)F (2), core 6-azido-fucosylated Herceptin carrying a complex-type N-glycan (antibody)"
2,8.03,"G2(NH2)F (3), core 6-amino-fucosylated Herceptin (antibody)"
3,8.14,"G2Gal (5), core L-galactosylated Herceptin (antibody)"
